Measurements taken from US20160176955A1 (LEIDOS, published 2016).

B1: peptide 10 (amino acids 91-106 of CSP) (peptide)
peptide: HKKLKQPADGNPDP
B2: peptide 8 (amino acids 71-85 of CSP) (peptide)
peptide: SLGENDDGNNEDNEK
B3: monoclonal antibody (mAb) 5D5 (antibody, V domains shown)
VH: QVHLQQSGGEVARPGASVKLSCKASGYTFTGYGLSWVKQRTGQGLEWIGEIYPRSGNTYYNEKFKGKATLTADKSSSTAYMELRSLTSEDSAVYFCARSWGNSSFVYWGQGTLVTVSA
VL: SIVMTQTPKFLLVSAGDRVTITCKASQSVTNDVTWYQQKPGQSPKLLIYYASNRYTGVPDRFTGSGYGTDFTFTISTVQAEDLAVYFCQQDYSSPFTFGSGTKLEIKR
notes: Murine IgG1/kappa hybridoma antibody; also called 5D5 mAb; MRA-1242

How the values were obtained:
[1] = biological target: B3; experiment: competitive ELISA, competitor against rCSP for binding to mAb 5D5; row 0.01 µg/ml
[2] = biological target: B3; experiment: competitive ELISA, competitor against rCSP for binding to mAb 5D5; row 0.001 µg/ml
[3] = biological target: B2; experiment: indirect ELISA, 15-mer peptide mapping
[4] = biological target: B1; experiment: indirect ELISA, 15-mer peptide mapping

Binder	ELISA signal (name and unit not given) [1]	ELISA signal (name and unit not given) [2]	binding result [3]	binding result [4]
LRKPKHKKLKQ [peptide D]	3.45	0.989		
NEDNEKLRK [peptide B]	3.51	1.03		
B1	3.34	0.92		
EDNEKLRKPKHKKLK [peptide 9 (amino acids 81-95 of CSP)]	0.246	0.19		
B2	3.35	0.952		
NEKLRKPKHK [peptide C]	3.49	0.976		
PKHKKLKQPAD [peptide E]	3.39	0.925		
DGNNEDNEK [peptide A]	3.57	1.05		
B3			no binding	no binding
